Source: patent US20070274991A1 (published 2007)

Biological target: T1, intact EGFR expressed on human mammary epithelial cells (HMECs) (human, UniProt P00533 25-1210)
T1 construct: whole, on cells; also called wild-type EGFR
Assay: radiolabeled antibody on parental HMECs
Procedure: To measure the effect on EGFR and EGFRvIII signaling of a given antibody binding to EGFR or EGFRvIII, radiolabeled antibodies were added to cultures of the HMECs described in the table above. […] When a non-neutralizing radiolabeled antibody binds to EGFR on a mammalian cell, the antibody will be internalized at a high rate if a ligand is present or if the EGFR is constitutively signaling for some other reason. When a neutralizing radiolabeled antibody binds to EGFR, signaling will stop and signaling-stimulated endocytosis will also stop.
In brief, radiolabelled antibodies were added to culture parental HMECs and to HMECs expressing EGFRvIII. At times of 0, 1, 2, 3, 5 and 10 minutes, cell samples were withdrawn, washed, and then acid-stripped to remove and measure surface-bound radiolabeled antibody. The cells were then lysed and the remaining radiolabel was measured to determine levels of internalized antibody.

B1: EMD72000 (antibody, V domains shown)
VH: QVQLVQSGAEVKKPGASVKVSCKASGYTFTSHWMHWVRQAPGQGLEWIGEFNPSNGRTNYNEKFKSKATMTVDTSTNTAYMELSSLRSEDTAVYYCASRDYDYDGRYFDYWGQGTLVTVS
VL: DIQMTQSPSSLSASVGDRVTITCSASSSVTYMYWYQQKPGKAPKLLIYDTSNLASGVPSRFSGSGSGTDYTFTISSLQPEDIATYYCQQWSSHIFTFGQGTKVEIK
notes: Used fluorescently labeled in yeast display and radiolabeled in the internalization assay; also called anti-EGFR antibody EMD72000; humanized version of the murine antibody 425
binding result: binds
